Changes are numbered by the printed parent chain.
T1: full-length untagged human GPNMB expressed on cells (human, UniProt Q14956 23-572)
T1 sequence: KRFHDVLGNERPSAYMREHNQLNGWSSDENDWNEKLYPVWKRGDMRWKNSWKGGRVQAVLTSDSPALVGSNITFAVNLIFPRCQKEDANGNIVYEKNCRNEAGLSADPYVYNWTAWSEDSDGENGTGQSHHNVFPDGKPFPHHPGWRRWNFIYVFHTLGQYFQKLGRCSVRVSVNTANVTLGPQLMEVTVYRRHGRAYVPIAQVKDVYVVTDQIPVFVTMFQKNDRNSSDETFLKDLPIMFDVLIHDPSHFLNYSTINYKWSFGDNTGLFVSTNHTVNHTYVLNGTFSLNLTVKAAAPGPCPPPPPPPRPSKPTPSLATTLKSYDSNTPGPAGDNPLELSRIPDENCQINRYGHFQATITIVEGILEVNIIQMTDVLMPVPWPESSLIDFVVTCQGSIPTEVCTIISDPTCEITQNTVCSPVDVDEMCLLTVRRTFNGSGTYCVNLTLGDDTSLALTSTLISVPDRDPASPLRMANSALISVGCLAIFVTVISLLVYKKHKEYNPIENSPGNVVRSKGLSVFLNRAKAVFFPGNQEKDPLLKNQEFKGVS

T2: soluble mouse GPNMB-Fc polypeptide (mouse IgG2A Fc) (mouse, UniProt Q99P91 23-502)
T2 construct: extracellular domain; bought (R&D System); also called moGPNMB-Fc; mGPNMB-Fc; not shown: Fc region of mouse IgG2A
T2 sequence (looked up): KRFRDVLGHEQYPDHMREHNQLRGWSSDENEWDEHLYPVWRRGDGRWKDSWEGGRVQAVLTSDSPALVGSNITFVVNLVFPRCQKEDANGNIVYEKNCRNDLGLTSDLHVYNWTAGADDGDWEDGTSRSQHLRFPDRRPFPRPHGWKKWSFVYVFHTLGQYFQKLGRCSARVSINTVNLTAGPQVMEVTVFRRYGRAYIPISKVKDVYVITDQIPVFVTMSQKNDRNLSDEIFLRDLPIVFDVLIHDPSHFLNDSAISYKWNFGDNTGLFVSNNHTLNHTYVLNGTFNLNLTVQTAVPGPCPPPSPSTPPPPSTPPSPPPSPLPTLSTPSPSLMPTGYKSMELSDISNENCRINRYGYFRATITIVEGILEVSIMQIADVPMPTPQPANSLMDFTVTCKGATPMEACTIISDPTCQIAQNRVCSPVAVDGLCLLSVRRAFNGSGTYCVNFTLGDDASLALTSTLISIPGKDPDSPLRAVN

T3: soluble mouse GPNMB (recombinant extracellular domain) (mouse, UniProt Q99P91 23-502)
T3 construct: also called moGPNMB; not shown: C-terminal polyhistidine or Avi-His tag
T3 sequence: T2 sequence (looked up)

B1: anti-GPNMB antibody GPN-83 (antibody, V domains shown)
VH: QVQLQESGPGLVKPSETLSLTCTVSGISITTGNYRWSWIRQPPGKGLEWIGYIDYSGTITYNPSLKSRVTITRDTSKNQFSLELSSVTAADTAVYYCARDLTHWYFDVWGQGTLVTVSS
VL: DIVMTQSPDSLAVSLGERATINCKSSRSVDYYGIGFVNWYQQKPGQPPKLLIYATSIQGSGVPDRFSGSGSGTDFTLTISSLQAEDVAVYYCQQQKEVPPTFGGGTKVEIK
B2: anti-GPNMB antibody GPN-86 (antibody, V domains shown)
VH: B1 VH
VL: B1 VL with V37L, I57K
B3: anti-GPNMB antibody GPN-89 (antibody, V domains shown)
VH: B1 VH with F106Y
VL: B1 VL with V37L, I57H
B4: anti-GPNMB antibody GPN-90 (antibody, V domains shown)
VH: B1 VH with S67Q
VL: B1 VL with V37L, I57H
B5: anti-GPNMB antibody GPN-85 (antibody, V domains shown)
VH: B1 VH with S67Q
VL: B1 VL with Y32F, V37L, I57H
B6: anti-GPNMB antibody GPN-87 (antibody, V domains shown)
VH: B1 VH with F106Y
VL: B1 VL with V37L, I57K
B7: anti-GPNMB antibody GPN-91 (antibody, V domains shown)
VH: B1 VH
VL: B1 VL with V37L, I57H, V98R
B8: anti-GPNMB antibody GPN-84 (antibody, V domains shown)
VH: B1 VH with F106Y
VL: B1 VL
B9: anti-GPNMB antibody GPN-88 (antibody, V domains shown)
VH: B1 VH
VL: B1 VL with V37L, I57H, E97H
B10: anti-GPNMB antibody GPN-41 (antibody, human IgG1, V domains shown)
VH: QLQLQQSGTEVVKPGASVKIPCKASGYAFSSYWMNWVKQRPGKGLEWIGQIYPGDGDTNDNGKFEGKATLTVDKSSNTAYIQLSSLTSEDSAVYFCARSPLHLRGSMDYWGQGTSVTVSS
VL: SIVMTQTPKFLLVSAGDRVTITCKASQSVSNDVAWFQQKPGQSPELLIYSASNRYTGVPDRFTASGYGTDFTFTISAVQAEDLAVYFCQQNYYSPFTFGGGTRLEIK
notes: chimeric
B11: anti-GPNMB antibody GPN-65 (antibody, human IgG1, V domains shown)
VH: B10 VH
VL: B10 VL with A64G, A77T
notes: chimeric
B12: anti-GPNMB antibody GPN-35 (antibody, human IgG1, V domains shown)
VH: EVQLVESGGGSVRPGRSLKLSCAAAGFTFSDYYMTWVRQAPTKGLEWVASINHDGGGTYYRDSVKGRFTISRDNARSSLYLQMDSLRSEDTGTYYCTTRAGWHWGQGVMVTVSS
VL: DIQMTQSPASLSASLGETVSIECLASEDIYNYLTWYQQKPGKSPQVLIYSASGLQDGVPSRFSGSGSGRQYSLKINGLESEDAATYFCLQDSEYPLTFGSGTKLEIK
notes: chimeric
B13: anti-GPNMB antibody GPN-38 (antibody, human IgG1, V domains shown)
VH: QVQLQQPGAELVRPGTSVRLSCKASGYTFTSYWIHWVKQRPGRGLEWIGVIDPSDSYTNYNQQFNVKATLTVDTSSSAAYMQLSSLTSEDSAVYYCARGLITAVNWYFDVWGTGTTVTVSS
VL: DIQMTQSPASLSTSVGEIVTITCRASENIYSYLTWYQQKQGKSPQLLVYNAKTLAEGVPSRFSGSGSGTQFSLKINSLQPEDFGTYYCQHHYGTPLTFGSGTKLEIK
notes: chimeric
B14: anti-GPNMB antibody GPN-52 (antibody, human IgG1, V domains shown)
VH: DVQLQESGPGLVKPSQTVFLTCTVTGISITTGNYRWSWIRQFPGNKLEWIGYIYYSGTITYNPSLTSRITITRDTPKNEFFLEMNSLTAEDTATYYCARDLTHWYFDVWGTGTTVTVSS
VL: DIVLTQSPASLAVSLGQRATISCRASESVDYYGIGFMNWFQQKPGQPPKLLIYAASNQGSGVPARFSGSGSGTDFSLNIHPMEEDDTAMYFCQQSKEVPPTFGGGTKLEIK
notes: chimeric
B15: anti-GPNMB antibody GPN-61 (antibody, human IgG1, V domains shown)
VH: B14 VH with I69T, E79Q, N85S, Y96F, T102R
VL: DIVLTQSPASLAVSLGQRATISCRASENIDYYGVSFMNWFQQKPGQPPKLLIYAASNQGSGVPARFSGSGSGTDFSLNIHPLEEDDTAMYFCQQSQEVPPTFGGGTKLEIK
notes: chimeric

Biological target: T1, full-length untagged human GPNMB …
Test: cell-based or functional assay

EC50 PDL1 [nM]	Fold Increase CD40 (max response at 1 µg/ml) [fold]	Fold Increase PDL1 (max response at 1 µg/ml) [fold]	Binder
0.91	2.1	4.31	B1
1.37	2.15	4.57	B2
1	2.12	4.22	B3
0.68	2.12	4.28	B4
0.97	2.1	4.22	B5
1.36	2.15	4.4	B6

Biological target: T2, soluble mouse GPNMB-Fc polypeptide …
Test: FACS, blocking of mGPNMB-Fc binding to SVEC cells
Experimental: Purified full-length affinity matured, anti-GPNMB antibodies were evaluated for their ability to block binding of mouse GPNMB-Fc to SVEC cells to calculate the ligand blocking potency of each clone. Briefly, 2 μg/ml soluble mGPNMB-Fc (mouse IgG2A Fc) diluted in binding buffer was pre-complexed with increasing concentrations of anti-GPNMB antibody or human IgG1 isotype control in 96-well plates. Subsequently, 100,000 SVEC cells were added per well and incubated on ice for 30 minutes. Soluble GPNMB-Fc bound to cell surface was detected with fluorescent anti-mouse IgG2A secondary antibody and measured on FACSCanto. Curves were fit using nonlinear regression analysis with Graphpad Prism 6 software.

IC50 [nM]	Binder
1.49	B1
1.26	B2
0.64	B7
1.44	B8
0.625	B9
1.18	B3
1.43	B4
1.51	B5
0.98	B6

Biological target: T1, full-length untagged human GPNMB …
Test: cell-based or functional assay
Remark: another data set of the same source

Inflammasome: Fold Decrease IL-1β (max response at 0.3 µg/ml) [fold]	Binder
0.472	B1
0.404	B2
0.501	B3
0.564	B4
0.601	B5
0.428	B6

Biological target: T3, soluble mouse GPNMB (recombinant …)
Test: SPR Carterra, Ab immobilized
Procedure, shortened: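 Antibodies amine-coupled on HC200M chip in a 96-spot array; recombinant GPNMB ECD analytes injected at 2.5–600 nM, lowest to highest, without regeneration. Running buffer HBS-EP+ with 0.5 mg/ml BSA; two buffer blanks between species series. Kinetics fitted to yield affinity estimates.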

Kd [nM]	koff [s⁻¹]	kon [M⁻¹ s⁻¹]	Binder
0.4	3.7e-05	97000	B10
0.5	5.1e-05	100000	B11
2.1	0.00012	56000	B12
3.45	7.8e-05	23000	B13
4.6	0.00082	190000	B14
2.1	0.00029	130000	B15
